Patent US11446371B2, “Targeting of ligand binding sites in ClfA” (THE TEXAS A&M UNIVERSITY SYSTEM, priority 2015, dated 2022)
“Also recorded” adds a separate entry of the source. Where a SMILES comes first, the peptide text is derived from it.

Assays:
[1] = biological target: Fg binding to ClfA (Staphylococcus aureus, UniProt Q53653); experiment: Reduction of Fg binding to ClfA by synthetic Fg γ-peptide; set-up: species or system S. aureus; settings: even at high concentrations
[2] = biological target: T1, ClfACC (Staphylococcus aureus, UniProt Q53653, D327C/K541C); experiment: ITC, synthetic C-terminal γ-chain peptide titrated into ClfACC; type: binding, S. aureus; settings: peptide titrated into cell containing ClfACC
T1 construct: made in house; host or cells: E. coli Topp3
T1 sequence (Q53653 229-545 D327C/K541C limits assumed): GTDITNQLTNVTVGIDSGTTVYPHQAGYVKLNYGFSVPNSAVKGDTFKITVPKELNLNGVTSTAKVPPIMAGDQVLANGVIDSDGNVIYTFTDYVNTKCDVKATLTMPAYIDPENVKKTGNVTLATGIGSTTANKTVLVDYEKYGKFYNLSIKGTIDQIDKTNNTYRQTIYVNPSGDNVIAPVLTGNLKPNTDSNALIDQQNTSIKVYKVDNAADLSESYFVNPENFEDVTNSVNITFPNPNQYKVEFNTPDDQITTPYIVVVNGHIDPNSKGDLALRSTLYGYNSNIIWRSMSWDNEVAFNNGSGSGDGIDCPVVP

[3] = test system: immobilized Tefibazumab; experiment: SPR binding of ClfA221-559 variants to immobilized Tefibazumab; settings: 0.1 μM ClfA221-559 variant
From the text: Surface Plasmon Resonance.
FIG. 3A is a ribbon diagram of ClfA-N3 domain showing the positions of PWY. The Fg γ-peptide is shown as a ribbon to show the location of the Fg γ-peptide binding site. […] The amino acid substitutions in the variant proteins were made at the mAb binding site. FIG. 3C is a graph of ClfAPWY and Fg-γ P16 peptide interaction measured by ITC.

[4] = biological target: T2, immobilized human Fg (Homo sapiens, UniProt P02671+P02675+P02679); experiment: SPR binding of ClfA proteins to immobilized Fg; settings: 0.1 μM ClfA221-559 variant
T2 construct: immobilized intact Fg
T2 sequence (P02671 20-644 isoform P02671-2 limits assumed): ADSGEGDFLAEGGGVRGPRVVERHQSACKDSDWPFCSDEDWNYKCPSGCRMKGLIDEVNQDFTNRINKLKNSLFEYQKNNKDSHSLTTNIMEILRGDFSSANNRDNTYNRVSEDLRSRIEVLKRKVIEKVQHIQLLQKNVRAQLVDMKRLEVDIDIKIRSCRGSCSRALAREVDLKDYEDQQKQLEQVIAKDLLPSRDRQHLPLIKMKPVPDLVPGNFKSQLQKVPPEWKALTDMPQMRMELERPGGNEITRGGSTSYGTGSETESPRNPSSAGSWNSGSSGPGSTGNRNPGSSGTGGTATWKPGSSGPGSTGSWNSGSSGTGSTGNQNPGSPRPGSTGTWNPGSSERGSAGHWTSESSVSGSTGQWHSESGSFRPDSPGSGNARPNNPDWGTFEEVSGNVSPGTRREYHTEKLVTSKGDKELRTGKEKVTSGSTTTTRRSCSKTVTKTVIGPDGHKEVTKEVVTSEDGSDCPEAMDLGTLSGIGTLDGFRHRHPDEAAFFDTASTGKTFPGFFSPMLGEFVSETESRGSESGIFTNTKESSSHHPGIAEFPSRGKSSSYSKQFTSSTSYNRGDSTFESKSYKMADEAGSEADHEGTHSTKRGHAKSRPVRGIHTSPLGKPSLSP
T2 sequence (P02675 31-491): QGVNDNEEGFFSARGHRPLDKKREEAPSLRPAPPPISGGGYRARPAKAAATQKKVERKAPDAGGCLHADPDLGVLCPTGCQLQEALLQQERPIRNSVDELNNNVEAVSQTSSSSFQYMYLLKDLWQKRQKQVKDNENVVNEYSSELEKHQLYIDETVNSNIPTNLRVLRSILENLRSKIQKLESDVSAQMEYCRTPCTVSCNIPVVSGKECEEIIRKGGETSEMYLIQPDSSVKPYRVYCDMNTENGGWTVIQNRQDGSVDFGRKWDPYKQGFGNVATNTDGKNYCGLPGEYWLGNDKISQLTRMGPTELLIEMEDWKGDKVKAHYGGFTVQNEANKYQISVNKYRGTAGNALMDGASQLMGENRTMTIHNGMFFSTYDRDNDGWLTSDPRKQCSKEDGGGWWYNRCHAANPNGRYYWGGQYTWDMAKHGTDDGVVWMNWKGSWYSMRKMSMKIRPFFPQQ
T2 sequence (P02679 27-437 isoform P02679-2 limits assumed): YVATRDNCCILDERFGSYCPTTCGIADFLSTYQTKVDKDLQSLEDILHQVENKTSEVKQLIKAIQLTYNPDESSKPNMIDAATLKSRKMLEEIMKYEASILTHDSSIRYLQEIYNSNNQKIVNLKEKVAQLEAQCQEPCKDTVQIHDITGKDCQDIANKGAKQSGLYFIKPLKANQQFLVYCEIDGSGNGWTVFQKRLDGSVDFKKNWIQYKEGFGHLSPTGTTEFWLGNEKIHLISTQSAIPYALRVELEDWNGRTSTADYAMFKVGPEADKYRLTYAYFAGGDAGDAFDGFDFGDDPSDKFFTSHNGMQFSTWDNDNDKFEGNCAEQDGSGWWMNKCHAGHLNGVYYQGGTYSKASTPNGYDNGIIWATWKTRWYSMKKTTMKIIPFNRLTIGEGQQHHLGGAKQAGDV
Protocol: (§1) Surface Plasmon Resonance. Surface plasmon resonance-based binding experiments were performed at 25° C. on a Biacore 3000 (GE Healthcare/Biacore, Uppsala, Sweden). Phosphate buffered saline (PBS-T: 8.06 mM Na2HPO4, 1.94 mM KH2PO4, 2.7 mM KCl and 137 mM NaCl, pH 7.4, and 0.005% Tween-20) was used as running buffer for immobilization and binding experiments. Flow rate of 5 μl/min was used during immobilization and a higher rate 30 or 50 μl/min for binding experiments. The fibrinogen (Fg) surface was prepared on a CM5 sensor chip via standard amine-coupling chemistry. A Fg solution (10 μl of 20 μg/ml in sodium citrate, pH5.5) was injected to an activated (4 min) flow cell. After deactivation, about 7000 resonance units (RU) of Fg were immobilized. A reference surface was prepared with activation and deactivation steps but no protein coupled. […] For GST fusion protein capturing, approximately 11000 RU of goat anti-GST antibody (GE Healthcare/Biacore) were immobilized simultaneously on two flow cells on a CM5 sensor chip. GST-tagged Fg γ-peptide (20 μg/ml in PBS-T) was captured by the antibody and created a ligand surface (about 700 RU). The other flow cell with GST captured (about 900 RU) served as a reference surface. […] All SPR responses were baseline corrected by subtracting response generated from reference surface.
(§2) Since most of the known and putative Fg interactive sites in ClfA are located within the N3 subdomain we examined the interactions of a recombinant form of N3 (ClfA370-559) to the different forms of immobilized Fg.

[5] = test system: immobilized human Fg; experiment: SPR binding of ClfA proteins to immobilized Fg; settings: immobilized Fg, Fg D-fragment, GST-γ-peptide
Protocol: as §1, §2

`CC(C)C[C@H](NC(=O)[C@H](Cc1c[nH]cn1)NC(=O)[C@H](Cc1c[nH]cn1)NC(=O)[C@H](CCC(N)=O)NC(=O)[C@H](CCC(N)=O)NC(=O)CNC(=O)[C@H](CCC(=O)O)NC(=O)CN)C(=O)NCC(=O)NCC(=O)N[C@@H](C)C(=O)N[C@@H](CCCCN)C(=O)N[C@@H](CCC(N)=O)C(=O)N[C@@H](C)C(=O)NCC(=O)N[C@@H](CC(=O)O)C(=O)N[C@H](C(=O)O)C(C)C` [Fg γ-peptide] (H-GEGQQHHLGGAKQAGDV-OH; N-terminus and C-terminus assumed) was tested. Which “maximum reduction of Fg binding to ClfA” value [1] did it give?
The value was about 50%.

What about the Kd [2] of the same molecule?
The Kd was 9 µM.

Y512A was tested. Which “binding to immobilized Tefibazumab” value [3] did it give?
The value was “slightly reduced binding”.

What about the “binding to immobilized human Fg” value [4] of the same molecule?
The value was “reduced binding”.

B1: ClfAPWY (protein)
chain: VAADAPAAGTDITNQLTNVTVGIDSGTTVYPHQAGYVKLNYGFSVPNSAVKGDTFKITVPKELNLNGVTSTAKVPPIMAGDQVLANGVIDSDGNVIYTFTDYVNTKDDVKATLTMPAYIDPENVKKTGNVTLATGIGSTTANKTVLVDYEKYGKFYNLSIKGTIDQIDKTNNTYRQTIYVNPSGDNVIAPVLTGNLKPNTDSNALIDQQNTSIKVYKVDNAADLSESYFVNPENFEDVTNSVNITFANPNQYKVEFNTPDDQITTPYIVVVNGHIDPNSKGDLALRSTLYGANSNIIARSMSWDNEVAFNNGSGSGDGIDKPVVPEQPDEPGEIEPIPE
B1 was tested. Which “binding to immobilized Tefibazumab” value [3] did it give?
The value was “almost completely abolished; also recorded: completely lost its ability to bind”.

And the “binding to immobilized human Fg” value [4]?
Its value is “minimal binding”.

B2: ClfA221-559: recombinant ClfA residues 221-559 (N2N3 subdomains) from S. aureus strain Newman (protein)
chain: VAADAPAAGTDITNQLTNVTVGIDSGTTVYPHQAGYVKLNYGFSVPNSAVKGDTFKITVPKELNLNGVTSTAKVPPIMAGDQVLANGVIDSDGNVIYTFTDYVNTKDDVKATLTMPAYIDPENVKKTGNVTLATGIGSTTANKTVLVDYEKYGKFYNLSIKGTIDQIDKTNNTYRQTIYVNPSGDNVIAPVLTGNLKPNTDSNALIDQQNTSIKVYKVDNAADLSESYFVNPENFEDVTNSVNITFPNPNQYKVEFNTPDDQITTPYIVVVNGHIDPNSKGDLALRSTLYGYNSNIIWRSMSWDNEVAFNNGSGSGDGIDKPVVPEQPDEPGEIEPIPE
For B2, which “fold difference in KD between binding to γ-peptide and to Fg or Fg D-fragment” value [5] is on record?
Its value is 4-7 fold.

B3: ClfA370-559: recombinant form of the ClfA N3 subdomain (protein)
chain: EKYGKFYNLSIKGTIDQIDKTNNTYRQTIYVNPSGDNVIAPVLTGNLKPNTDSNALIDQQNTSIKVYKVDNAADLSESYFVNPENFEDVTNSVNITFPNPNQYKVEFNTPDDQITTPYIVVVNGHIDPNSKGDLALRSTLYGYNSNIIWRSMSWDNEVAFNNGSGSGDGIDKPVVPEQPDEPGEIEPIPE
B3 was tested. Which “fold difference in KD between binding to γ-peptide and to Fg or Fg D-fragment” value [5] did it give?
Its value is “about 10 fold”.
